Assay [1] deals with T1, human LGR5-eGFP transgene (human, UniProt O75473 22-907).
T1 construct: Tested on live or fixed cells and as cell lysates on western blots; also called hLGR5-eGFP; LGR5-GFP
T1 sequence: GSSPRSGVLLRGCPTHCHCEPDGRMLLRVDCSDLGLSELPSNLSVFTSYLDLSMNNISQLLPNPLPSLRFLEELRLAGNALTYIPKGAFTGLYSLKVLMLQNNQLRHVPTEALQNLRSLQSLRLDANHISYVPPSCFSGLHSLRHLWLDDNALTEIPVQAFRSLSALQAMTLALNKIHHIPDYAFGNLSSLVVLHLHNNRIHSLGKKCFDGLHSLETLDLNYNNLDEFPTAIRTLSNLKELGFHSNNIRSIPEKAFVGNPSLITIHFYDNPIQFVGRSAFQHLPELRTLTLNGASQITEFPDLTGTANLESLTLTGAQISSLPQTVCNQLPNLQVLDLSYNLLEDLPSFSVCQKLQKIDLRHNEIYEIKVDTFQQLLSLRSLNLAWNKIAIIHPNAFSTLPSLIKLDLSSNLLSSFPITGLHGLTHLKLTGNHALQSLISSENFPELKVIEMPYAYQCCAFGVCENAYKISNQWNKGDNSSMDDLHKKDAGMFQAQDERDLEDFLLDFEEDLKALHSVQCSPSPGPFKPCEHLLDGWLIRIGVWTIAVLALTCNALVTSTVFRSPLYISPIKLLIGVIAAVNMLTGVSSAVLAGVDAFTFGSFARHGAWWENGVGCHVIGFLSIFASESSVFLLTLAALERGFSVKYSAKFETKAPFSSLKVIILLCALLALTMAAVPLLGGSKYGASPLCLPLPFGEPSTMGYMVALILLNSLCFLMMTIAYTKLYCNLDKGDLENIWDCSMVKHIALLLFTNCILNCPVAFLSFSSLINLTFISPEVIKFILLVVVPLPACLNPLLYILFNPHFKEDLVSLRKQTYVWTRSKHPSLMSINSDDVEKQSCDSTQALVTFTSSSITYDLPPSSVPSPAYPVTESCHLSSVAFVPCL
The assay is described as follows: western blot of lysates of HEK293T cells expressing mLGR5, hLGR5 or cynoLGR5 transgenes, probed with hybridoma clone 1.

The target of assay [2] is T1, human LGR5-eGFP transgene. The assay is described as follows: western blot of lysates of HEK293T cells expressing mLGR5, hLGR5 or cynoLGR5 transgenes, probed with hybridoma clone 3. Background: A western blot detects proteins with antibodies after separation by electrophoresis.
Assay [3] concerns the target T2, murine LGR5 transgene (mouse, UniProt Q9Z1P4 22-907).
T2 construct: whole, on cells; Overexpressed in HEK293T cells with N-terminal HA tag, V2 receptor tail and eGFP; also tested as lysate; also called mLGR5; mLGR5-eGFP
T2 sequence (looked up): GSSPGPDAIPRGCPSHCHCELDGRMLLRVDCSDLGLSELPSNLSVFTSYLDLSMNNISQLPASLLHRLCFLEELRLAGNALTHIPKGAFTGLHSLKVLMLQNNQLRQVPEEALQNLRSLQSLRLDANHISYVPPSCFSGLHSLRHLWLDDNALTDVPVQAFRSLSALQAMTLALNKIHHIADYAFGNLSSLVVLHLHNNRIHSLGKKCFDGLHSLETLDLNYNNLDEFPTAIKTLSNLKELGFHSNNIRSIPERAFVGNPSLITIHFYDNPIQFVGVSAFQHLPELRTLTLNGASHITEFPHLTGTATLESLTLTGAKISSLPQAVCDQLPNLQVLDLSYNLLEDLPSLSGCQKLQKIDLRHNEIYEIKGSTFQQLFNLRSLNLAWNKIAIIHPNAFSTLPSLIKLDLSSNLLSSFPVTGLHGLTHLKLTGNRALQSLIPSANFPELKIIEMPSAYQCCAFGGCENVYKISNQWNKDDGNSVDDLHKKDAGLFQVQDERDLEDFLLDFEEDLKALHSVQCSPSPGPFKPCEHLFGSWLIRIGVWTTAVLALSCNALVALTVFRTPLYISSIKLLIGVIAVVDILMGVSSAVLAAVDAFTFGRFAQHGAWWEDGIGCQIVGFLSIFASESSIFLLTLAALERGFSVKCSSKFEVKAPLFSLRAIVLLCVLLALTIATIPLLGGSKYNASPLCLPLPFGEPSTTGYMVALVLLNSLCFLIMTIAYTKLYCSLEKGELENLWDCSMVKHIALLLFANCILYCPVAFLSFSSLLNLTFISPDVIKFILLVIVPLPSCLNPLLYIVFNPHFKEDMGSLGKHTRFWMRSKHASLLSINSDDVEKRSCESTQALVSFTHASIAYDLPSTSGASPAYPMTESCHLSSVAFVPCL
The assay is described as above.

Assay [4] concerns the target T1, human LGR5-eGFP transgene. The assay is described as follows: western blot of lysates of HEK293T cells expressing mLGR5, hLGR5 or cynoLGR5 transgenes, probed with hybridoma clone 4.
For assay [5], the target named is T2, murine LGR5 transgene. Described as above.

Numbering of substitutions follows the chain as printed.

B1: α-LGR5 clone 1 (antibody, mouse IgG1, kappa, V domains shown)
VH: QVQLQQPGAELVKPGASVKLSCKASGYTFTSYWMQWVKQRPGQGLEWIGEIDPSDYYTNYNQKFKGKATLTVDTSSSTAYMQLSSLTSEDSAVYYCARSLSGYVDYWGQGTTLTVSS
VL: DIQMTQSTSSLSASLGDRVTINCRASQDIRNRLNWYQQKPDGTVKLLISYRSRLQSGVPSRFSGSGSGTEYSLTISNLEQEDIATYFCQQGNTLPPTFGGGTKLEVRR
notes: Murine monoclonal antibody from hybridoma; also called hybridoma clone 1; antibody 1
Turning to B1, the binding result in assay [1] is given as “binds”.

B2: α-LGR5 clone 3 (antibody, mouse IgG1, kappa, V domains shown)
VH: B1 VH with Y56S, T58S
VL: B1 VL with S7T, N22S, R30S, E70D, Q80E
notes: Murine monoclonal antibody from hybridoma; also called hybridoma clone 3; antibody 3
Consider B2, for which the binding result in assay [2] is on record as “binds”; in assay [3] it was “no binding”.

B3: α-LGR5 clone 4 (antibody, mouse IgG2b, kappa, V domains shown)
VH: B1 VH with S31D, Y56S, K65Q, M81I, E89D, Y103S
VL: B1 VL with S7T, N22S, R30S, E70D, S76T
notes: Murine monoclonal antibody from hybridoma; also called hybridoma clone 4; antibody 4
As to B3, the binding result was “binds” in assay [4] and “no binding” in assay [5].

Values taken from patent US20250257126A1 (CAMBRIDGE ENTERPRISE, published 2025).
